According to patent US20120130045A1, “BIOMOLECULE-POLYMER CONJUGATES AND METHODS OF MAKING SAME” (ABLITECH, INC., priority 2009, published 2012):

Legend:
DNase I = DNase I digestion monitored by TLC; assay type: in vitro ADME; details: for DNase I digestion after six hours (TLC, FIG. 6): model oligonucleotide
From the text: Nucleases and proteases are common and result in extremely short half-life for biomolecules not protected from the in vivo environment. In addition, carboxylesterases (CES) are known to be present in many cancerous tumor cells. Therefore, the ability of the biomolecule-polymer conjugates of the disclosure to withstand degradation in the presence of fetal calf serum (FCS) and either DNase I, or 51 nuclease is investigated, as well as the ability of carboxylesterase 1 to degrade the biomolecule-polymer conjugates and release the biomolecule.
Concentrations of treatments were as follows: FCS (30%), DNase I (30 units), 51 nuclease (10 units). Digestions were conducted at 37° C. and monitored by either thin layer chromatography or gel electrophoresis.

[1] = test system: bacterial 16S ribosomal RNA gene; test: PCR amplification with 8F primer conjugates, gel electrophoresis; assay type: biochemical
From the text: The retention and recovery of the original functionality of the biomolecule is a characteristic of the conjugates of the disclosure. In order to test the ability of an oligonucleotide-polymer conjugate of the disclosure to functionally bind its complementary sequence, PCR primers were utilized. The universal bacterial primers 8F (5′-[…]-3′, SEQ ID NO:2) and 1392R (5′-ACGGGCGGTGTGTACA-3′, SEQ ID NO:3) were used to amplify a portion of the bacterial 16S ribosomal RNA gene. The 8F primer conjugated to MPEG-550 networked with MPEG-550 were prepared according to Examples 7 and 9 above, and subjected to DNase I degradation studies.
The MPEG550 conjugate and the MPEG550-networked-conjugate were then treated with NH4OH to release the PCR primers from the MPEG550 via chemical degradation and PCR amplification was then performed. Each 50-μl PCR mixture contained 1 μl template DNA (either E. coli. or an environmental isolate belonging to the genus Streptomonospora), 2 U Taq DNA polymerase (Eppendorf), 1×Taq buffer, […] Mg(OAc)2, 1×Taq Master PCR Enhancer, each deoxynucleoside triphosphate at a concentration of 20 μM, and each primer at a concentration of 0.4 μM. The PCR conditions were 85° C. for 5 min, 30 cycles of 94° C. for 45 s, 55° C. for 1 min, and 72° C. for 90 s, with a final 7 min extension at 72° C.

Substance	DNase I digestion after one hour (TLC, FIG. 5) (DNase I; DNase I 30 units, 37° C., one hour, model oligonucleotide of Example 1)	DNase I digestion after six hours (TLC, FIG. 6) (DNase I; DNase I 30 units, 37° C.)	DNase I digestion after 3 hours following NH4OH treatment (TLC, FIG. 7) (DNase I; conjugate treated with NH4OH to cleave the L-X bond, then DNase I, 3 hours)	DNase I digestion after one hour (TLC, FIG. 9) (DNase I; 8F PCR primer conjugates, DNase I, one hour)	PCR amplification product after NH4OH treatment (1% agarose gel) ([1]; conjugate cleaved in NH4OH for 15 minutes and 18 hours before PCR)	PCR amplification product (1% agarose gel) ([1]; each primer 0.4 μM, with 1392R primer, 30 cycles)
oligonucleotide-MPEG conjugate: model oligonucleotide of Example 1 (SEQ ID NO:1) conjugated to MPEG550 (methoxy-terminated PEG, MW 550) (TTTTATTTTATTTTATTTTA; DNA, backbone not given here; conjugated to MPEG550 via propargyl chloroformate chemistry, further chemistry not fully specified)	resistant to DNase I treatment	remained intact	allowed for degradation by DNase I			
MPEG550 conjugate: universal bacterial 8F PCR primer (SEQ ID NO:2) conjugated to MPEG-550 according to Example 7 (DNA AGAGTTTGATCCTGGCTCAG; primer conjugated to MPEG-550, position not given here)				resistant to nuclease degradation	yielded the appropriate size amplification product	functional and yielded the appropriate size amplification product
5′-TTTTATTTTATTTTATTTTA-3′ (model oligonucleotide, sugar chemistry not given here, further chemistry not given here) [native model oligonucleotide, reference compound]		completely digested				
